Test results: the RNAGym collection of RNA variant scans (doi:10.7554/elife.80360)

B1: HDV Ribozyme (parent)
chain: GGCCGGCAUGGUCCCAGCCUCCUCGCUGGCGCCGGCUGGGCAACAUUCCGAGGGGACCGUCCCCUCGGUAAUGGCGAAUGGGACCCA

Variants of: B1
Experiment: self-cleavage, relative activity (ratio to wild type); higher = more cleavage; co-transcriptional

First: C33A U60A
Second: C33A U65G
The self-cleavage of the first is lower: 0.193 for the first, 0.244 for the second.

Going from C33A U65C to C33A G39C, the self-cleavage falls from 0.158 to 0.0678.

Going from C33A G39U to C33G A71C, the self-cleavage falls from 0.138 to 0.104.

Compared with C33G A71G, C32U G82A is higher in self-cleavage: 0.178 for the first, 0.354 for the second.

First: C32U G82C
Second: C33G G50U
The self-cleavage of the first is higher: 0.253 for the first, 0.131 for the second.

First: C33G C44G
Second: C33A C86A
The self-cleavage of the first is lower: 0.101 for the first, 0.277 for the second.

First: C33G C64A
Second: C33G A56C
The self-cleavage of the first is higher: 0.213 for the first, 0.113 for the second.

Going from C33G A56G to C33G A56U, the self-cleavage rises from 0.222 to 0.228.

Compared with C33G A70U, C32U G81A is lower in self-cleavage: 0.383 for the first, 0.158 for the second.

Going from C32U G81U to C33A G53A, the self-cleavage rises from 0.185 to 0.264.

Going from C33A G53U to C33A C84U, the self-cleavage falls from 0.277 to 0.193.

First: C33A C84A
Second: C33G A83G
The self-cleavage of the first is lower: 0.0811 for the first, 0.0963 for the second.

Compared with C33G A83U, C33G G53U is higher in self-cleavage: 0.162 for the first, 0.185 for the second.

Compared with C33G G53A, C33A G52U is higher in self-cleavage: 0.0449 for the first, 0.161 for the second.

First: C33A G52A
Second: C33A G52C
The self-cleavage of the first is lower: 0.229 for the first, 0.284 for the second.

Going from C33G C86A to C33G C86G, the self-cleavage rises from 0.146 to 0.151.

Compared with C33A C44U, C32U U46C is higher in self-cleavage: 0.0707 for the first, 0.554 for the second.

Compared with C32U U46G, C33G C57A is lower in self-cleavage: 0.646 for the first, 0.147 for the second.

Going from C33G C57U to C33G C57G, the self-cleavage rises from 0.166 to 0.214.

First: C33A G82C
Second: C33G C75A
The self-cleavage of the first is higher: 0.17 for the first, 0.0791 for the second.

Compared with C33G C75U, C33G C75G is lower in self-cleavage: 0.151 for the first, 0.0426 for the second.

First: C33A U69C
Second: C33A U69G
The self-cleavage of the first is higher: 0.342 for the first, 0.287 for the second.

Compared with C33A U72A, C32U G73U is higher in self-cleavage: 0.208 for the first, 0.267 for the second.

Compared with C32U G73C, C33G C36G is lower in self-cleavage: 0.261 for the first, 0.128 for the second.

Going from C33G C36A to C33A G59C, the self-cleavage rises from 0.107 to 0.521.

Compared with C33A G59U, C33G C61U is lower in self-cleavage: 0.338 for the first, 0.212 for the second.

Going from C33G C61G to C33G C61A, the self-cleavage rises from 0.19 to 0.193.

First: C33G C62G
Second: C33G C49G
The self-cleavage of the first is higher: 0.196 for the first, 0.0978 for the second.

First: C33G C49U
Second: C33A U46A
The self-cleavage of the first is lower: 0.0923 for the first, 0.128 for the second.

Going from C33A U46C to C33A A78G, the self-cleavage rises from 0.0875 to 0.161.

Going from C33A A77C to C33A A77U, the self-cleavage rises from 0.0707 to 0.0923.

Compared with C33A A77G, C33G A51G is higher in self-cleavage: 0.104 for the first, 0.111 for the second.

Compared with C33G A77U, C32U G68A is higher in self-cleavage: 0.106 for the first, 0.888 for the second.

First: C32U G68U
Second: C32U U60C
The self-cleavage of the first is higher: 0.776 for the first, 0.7 for the second.

First: C33A A83G
Second: C33G C84U
The self-cleavage of the first is higher: 0.144 for the first, 0.0386 for the second.

Going from C33G C84G to C33A A42G, the self-cleavage falls from 0.0489 to 0.

First: C33A C61U
Second: C33A C61G
The self-cleavage of the first is higher: 0.265 for the first, 0.237 for the second.

Compared with C33A C48A, C33G G40A is lower in self-cleavage: 0.314 for the first, 0.243 for the second.

First: C33G G40U
Second: C33A G76A
The self-cleavage of the first is higher: 0.233 for the first, 0.228 for the second.

Going from C33A G76C to C33A G76U, the self-cleavage rises from 0.251 to 0.326.

First: C33G G52A
Second: C33G C41A
The self-cleavage of the first is lower: 0.148 for the first, 0.185 for the second.

Going from C32U G59A to C32U G59U, the self-cleavage falls from 0.963 to 0.795.

Compared with C33G C66U, C33A C63G is higher in self-cleavage: 0.181 for the first, 0.283 for the second.

First: C33A C63U
Second: C33G G34C
The self-cleavage of the first is higher: 0.503 for the first, 0 for the second.

First: C33G G34U
Second: C33A G34A
The self-cleavage of the first is lower: 0.0997 for the first, 0.166 for the second.

Going from C32U G74A to C33A A45U, the self-cleavage falls from 0.459 to 0.232.

First: C33A A45C
Second: C33A C36G
The self-cleavage of the first is lower: 0.133 for the first, 0.208 for the second.

Compared with C33A C36U, C33A A56U is higher in self-cleavage: 0.0396 for the first, 0.475 for the second.

Compared with C33A A56G, C33A A56C is higher in self-cleavage: 0.324 for the first, 0.339 for the second.

First: C33A A71U
Second: C33A A71G
The self-cleavage of the first is lower: 0.0282 for the first, 0.289 for the second.

Going from C32U G55U to C32U G55C, the self-cleavage falls from 0.935 to 0.866.

Compared with C33G C48U, C33A G68C is lower in self-cleavage: 0.13 for the first, 0.0449 for the second.

Compared with C33G A87U, C33G A87C is lower in self-cleavage: 0.151 for the first, 0.0839 for the second.

Compared with C33G A87G, C33A G40A is higher in self-cleavage: 0.116 for the first, 0.214 for the second.

First: C33A C49A
Second: C33A C49U
The self-cleavage of the first is higher: 0.364 for the first, 0.212 for the second.

Compared with C33A G38U, C33A G38A is lower in self-cleavage: 0.153 for the first, 0.0386 for the second.

Going from C33A G80C to C33A G80U, the self-cleavage falls from 0.16 to 0.136.

Going from C32U U69A to C33G G39U, the self-cleavage falls from 1.13 to 0.0692.

First: C33G G39C
Second: C33G C63G
The self-cleavage of the first is lower: 0.0386 for the first, 0.369 for the second.

Compared with C33G C63A, C33G C63U is higher in self-cleavage: 0.0475 for the first, 0.173 for the second.

Compared with C33A C85G, C33A C85U is lower in self-cleavage: 0.309 for the first, 0.277 for the second.

Going from C33A to C33G, the self-cleavage falls from 0.29 to 0.173.

Going from C32U G54C to C32U G54U, the self-cleavage falls from 0.992 to 0.923.

First: C33G C58G
Second: C32U G67U
The self-cleavage of the first is lower: 0.185 for the first, 0.88 for the second.

First: C32U U37A
Second: C33A C57U
The self-cleavage of the first is lower: 0.252 for the first, 0.46 for the second.

First: C33A U79C
Second: C33A G35C
The self-cleavage of the first is lower: 0.0893 for the first, 0.133 for the second.

First: C33G A42U
Second: C33A G50U
The self-cleavage of the first is lower: 0.0678 for the first, 0.295 for the second.

First: C33A G50C
Second: C33A G50A
The self-cleavage of the first is lower: 0.203 for the first, 0.215 for the second.

First: C33A C64G
Second: C33A C64U
The self-cleavage of the first is higher: 0.289 for the first, 0.086 for the second.

Compared with C33A C64A, C33G A45G is higher in self-cleavage: 0.339 for the first, 0.447 for the second.

Going from C32U G80C to C32U G80A, the self-cleavage rises from 0.132 to 0.256.

Going from C33A G74A to C33G G54U, the self-cleavage rises from 0.0219 to 0.0426.

First: C33A G67A
Second: C32U U65G
The self-cleavage of the first is lower: 0.273 for the first, 0.956 for the second.

Compared with C32U U65C, C32U U65A is higher in self-cleavage: 0.91 for the first, 1.08 for the second.

First: C33G A78U
Second: C32U U79C
The self-cleavage of the first is lower: 0.0875 for the first, 0.201 for the second.

Going from C33A U47G to C33G G38C, the self-cleavage falls from 0.378 to 0.

First: C33A A51G
Second: C33A A43U
The self-cleavage of the first is higher: 0.289 for the first, 0.163 for the second.

Going from C33G G35C to C33G G35U, the self-cleavage rises from 0.0396 to 0.142.

First: C33G C85U
Second: C33G C85A
The self-cleavage of the first is lower: 0.122 for the first, 0.175 for the second.

First: C33A G54C
Second: C33A G54U
The self-cleavage of the first is higher: 0.222 for the first, 0.198 for the second.

First: C33A C75G
Second: C33A G73U
The self-cleavage of the first is lower: 0.145 for the first, 0.233 for the second.

First: C33A G73A
Second: C32U U72A
The self-cleavage of the first is lower: 0.147 for the first, 0.692 for the second.

Going from C32U U72G to C33A G55U, the self-cleavage falls from 0.494 to 0.349.

C32U G53U gave a self-cleavage of 0.811.
